We go through one molecule from patent US20120121506A1 (PHILOGEN S P A, published 2012).

The assay has as its target T1, Extra Domain-A (ED-A) isoform of fibronectin in bone marrow biopsies of AML patients (human, UniProt P02751 1722-1811, limits assumed).
T1 construct: The antigen was not used as an isolated protein; It is the native protein in patient tissue sections; also called A-FN; EDA domain of fibronectin
The experiment in a line: immunohistochemistry, bone marrow biopsies of two patients with extramedullary AML, biotinylated SIP 2 ug/ml. The protocol: For immunohistochemistry, biotinylated antibodies were used in small immunoprotein format (SIP) under identical conditions (2 μg/ml). Aliquots were prepared from a single batch of antibodies, frozen and used only once to ensure reproducibility of immunohistochemical stainings. Frozen tissue samples were stored at −80° C. Sections of 10 μm thickness were fixed in chilled acetone, rehydrated in TBS buffer (50 mM Tris, 100 mM NaCl, 0.001% Aprotinin, pH 7.4) and blocked with 20% fetal calf serum in TBS. The antibodies were added onto the sections in a final concentration of 2 μg/mL in 3% bovine serum albumin (BSA)/TBS solution and incubated for one hour. After washing in TBS, bound antibodies were detected with streptavidin-biotinylated alkaline phosphatase complex (Biospa, Milan, Italy) in TBS 3% BSA+2 mM MgCl₂. The Fast Red substrate (Sigma) was used for detection of phosphatase activity. Sections were counterstained with Gill's hematoxylin No. 2 (Sigma) and mounted with Glycergel mounting medium (Dako, Glostrup, Denmark).

T1 sequence (P02751 1722-1811 limits assumed): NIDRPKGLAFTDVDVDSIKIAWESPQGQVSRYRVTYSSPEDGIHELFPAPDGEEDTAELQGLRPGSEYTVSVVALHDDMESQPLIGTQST

B1: F8-SIP (V5L/K18R) (antibody)
chain: EVQLLESGGGLVQPGGSLRLSCAASGFTFSLFTMSWVRQAPGKGLEWVSAISGSGGSTYYADSVKGRFTISRDNSKNTLYLQMNSLRAEDTAVYYCAKSTHLYLFDYWGQGTLVTVSSGGGGSGGGSGGGGGEIVLTQSPGTLSLSPGERATLSCRASQSVSMPFLAWYQQKPGQAPRLLIYGASSRATGIPDRFSGSGSGTDFTLTISRLEPEDFAVYYCQQMRGRPPTFGQGTKVEIKSGGSGGPRAAPEVYAFATPEWPGSRDKRTLACLIQNFMPEDISVQWLHNEVQLPDARHSTTQPRKTKGSGFFVFSRLEVTRAEWEQKDEFICRAVHEAASPSQTVQRAVSVNPESSRRGGC
modifications: biotinylated (sites not given)
notes: Human monoclonal mini-immunoglobulin (small immunoprotein, SIP); It was used biotinylated at 2 ug/ml on tissue sections; also called F8 (V5L/K18R)
As for B1, the binding result is recorded as “binds”.
